Data as given in patent US11369662B2 (The Medical College of Wisconsin, Inc., priority 2014, dated 2022).

Biological target: T1, CXCR4(Y12A) (Homo sapiens, UniProt P61073, Y12A)
T1 construct: expressed in transfected cells; host or cells: CHO-K1 stably expressing Galpha15 (transient)
Test: Calcium flux in CHO-K1 cells, FLAG-tagged CXCR4(Y12A)
Format: cell-based
Settings: relative to wildtype CXCR4
Procedure: Cell culture. Chinese hamster ovary K1 (CHO-K1) cells, stably transfected with the Gα15 gene in pcDNA3.1+, were cultured in a 1:1 mixture of Dulbecco's modified Eagle medium (DMEM) with Glutamax (Gibco):F12 nutrient mixture (Gibco) supplemented with 10% (w/v) fetal bovine serum (FBS) (Gibco). Stable expression of the Gα15 transgene was maintained by further supplementing the growth medium with 700 μg ml^−1 geneticin (Gibco).
Transfections. For transient transfections with the Flag-CXCR4 WT and N-terminally mutated constructs, the CHO-K1 Gα15 stable cells were lifted using 0.25% (v/v) trypsin-EDTA (Gibco), and 2×10^6 cells were re-plated onto 10 cm culture dishes. […] The cells were transfected 24 hours later using the Mirus TransIT-CHO Transfection Kit according to the manufacturers protocol, with the following exceptions: the amount of CHO transfection reagent was scaled up to 4 μl μg^−1 of DNA in the transfection mixtures, and the amount of CHO mojo reagent was scaled up to 1 μl μg^−1 of DNA in the mixtures. […]
Calcium flux. […] Fluorescence was measured at 310 K using a FlexStation2 Microplate Reader with excitation and emission wavelengths at 485 nm and 515 nm, respectively. […] CXCR4 variants with EC50 or maximum calcium response values more than three standard deviations from the mean CXCR4WT quantities were deemed significant.

T1 sequence (P61073 whole entry Y12A): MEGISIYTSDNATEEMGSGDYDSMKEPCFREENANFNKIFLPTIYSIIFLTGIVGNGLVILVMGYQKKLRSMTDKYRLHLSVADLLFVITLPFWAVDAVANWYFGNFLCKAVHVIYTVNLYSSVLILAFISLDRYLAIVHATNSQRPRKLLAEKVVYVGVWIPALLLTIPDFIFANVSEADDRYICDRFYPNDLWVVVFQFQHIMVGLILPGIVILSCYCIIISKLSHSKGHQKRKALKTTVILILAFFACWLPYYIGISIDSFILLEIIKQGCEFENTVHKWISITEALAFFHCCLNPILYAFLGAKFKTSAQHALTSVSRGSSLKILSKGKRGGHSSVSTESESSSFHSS

- reduction of potency (calcium response): 3 fold
Substance: CXCL12WT: wild type CXCL12 (stromal cell-derived factor-1/SDF-1), SEQ ID NO:1
